Assay results from FireProtDB (doi:10.1021/bi951726o).

B1: Tryptophan synthase alpha chain, P0A877 (parent)
chain: MERYESLFAQLKERKEGAFVPFVTLGDPGIEQSLKIIDTLIEAGADALELGIPFSDPLADGPTIQNATLRAFAAGVTPAQCFEMLALIRQKHPTIPIGLLMYANLVFNKGIDEFYAQCEKVGVDSVLVADVPVEESAPFRQAALRHNVAPIFICPPNADDDLLRQIASYGRGYTYLLSRAGVTGAENRAALPLNHLVAKLKEYNAAPPLQGFGISAPDQVKAAIDAGAAGAISGSAIVKIIEQHINEPEKMLAALKVFVQPMKAATRS

Variants of: B1
Conditions: Escherichia coli (strain K12), pH 7.8, Urea, NMR, Potassium phosphate 58 mM, reversible: yes, structure 1WQ5, whole UniProt chain shown

In the case of H244A, the “denaturant midpoint (higher = more stable)” value (“denaturant midpoint” below) (5 °C) is reported as 4.8 M and the unfolding free energy (5 °C) is reported as 4 kcal/mol.

For P93A H244A, the “denaturant midpoint” value (25 °C) was 5.4 M and the unfolding free energy (25 °C) was 3.4 kcal/mol.

For I95A, the “denaturant midpoint” value (25 °C) was 6.2 M and the unfolding free energy (25 °C) was 7.9 kcal/mol.

For P96A, the “denaturant midpoint” value (25 °C) was 8.6 M and the unfolding free energy (25 °C) was 4.9 kcal/mol.

With L100A the “denaturant midpoint” value (25 °C) was 5.2 M and the unfolding free energy (25 °C) was 4.7 kcal/mol.

For Y102A, the “denaturant midpoint” value (25 °C) was 5 M and the unfolding free energy (25 °C) was 5.4 kcal/mol.
